In the supplement of paper PMC10567573:

B1: TRIM55 (parent)
chain: ICPICLEMFTKPVVILPCQHNLCR

Variants of: B1
Test: protein stability index of a GFP-peptide fusion (GPS, HEK-293T) (PSI 1-6); higher = more stable
Settings: c terminus: a fixed tail appended
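Note: lentivirally expressed fusions sorted by FACS into six bins by GFP to DsRed ratio, PSI derived from sequencing read proportions per bin multiplied by bin number.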

Protein stability index of substitutions, site by site:
I4: A 2.07; D 2.49; P 1.94; W 2.34; E 2.33; Y 2.69; R 2.87; V 2.51; Q 3.02; T 2.31; H 2.26; G 2.03; M 1.86; L 1.78; K 2.74; S 2.72; N 2.25; F 2.67; C 1.83
L6: C 2.39; R 2.22; A 2.03; M 2.45; P 2.69; Q 1.99; W 2.77; G 2.25; I 2.32; S 2.52; H 2.38; E 3.49; K 2.81; Y 2.34; V 1.95; T 2.51; F 2.48; N 2.94; D 2.79
C5: H 1.15; S 2.38; N 2.01; W 1.6; L 1.72; M 2.09; P 2.07; K 3.33; Q 1.18; V 2.14; F 1.57; A 1.93; E 2.28; Y 2.3; G 1.8; R 1.22; D 2.05; T 1.73
E7: V 1.42; A 2.3; W 1.89; I 1.94; T 1.85; Q 2.42; M 2.09; P 2.13; D 2.35; N 1.53; H 2.29; Y 2.07; L 2.47; C 1.92; G 2.52; R 2.24; S 2.19; K 1.87; F 2.24
M8: R 2.42; K 2.98; Q 3.31; S 2.59; N 1.9; V 2.17; L 1.66; F 2.55; A 2.76; G 2.11; I 2.63; D 3.58; C 2.44; W 3.09; T 2.73; P 2.71; Y 2.82; E 2.59; H 2.76
C2: G 1.77; P 1.93; Q 1.73; R 2.03; L 2.04; H 1.96; S 2.55; T 1.6; W 1.22; I 1.56; D 1.96; A 2.31; E 2.05; K 2.15; M 1.67; N 1.78; Y 2.49; V 2.11; F 2.02
F9: H 2.82; G 2.52; C 2.81; T 3.07; Y 2.18; P 2.85; N 2.75; E 3.15; S 2.75; I 2.77; Q 2.49; M 2.51; K 3.63; A 2.64; V 2.86; L 2.47; W 2.47; R 2.18; D 3.1
I1: T 2.51; W 2.59; P 2.19; V 2.4; Q 3.01; Y 1.92; R 2.75; S 2.72
T10: H 2.27; A 2.23; D 2.48; I 1.83; E 2.59; F 1.74; G 2.25; C 2.08
P3: V 2.21; C 1.63; K 1.66; S 1.75; E 2.21; I 3.07; R 1.27; D 2.53; N 2.13; L 2.17; Y 1.27; T 2.45; H 2.35; F 1.6; G 1.26; W 1.9; M 2.07; A 1.27; Q 1.2
